In the supplement of paper PMC10724198:
± gives the standard deviation of the averaged measurements.

System: Saccharomyces cerevisiae
Assay: protein stability index of tFT-peptide fusion (C-terminal peptide) (PSI (0-1 scale)); higher = more stable (slower turnover)
Conditions: genetic background: wild type; temperature: 30 C
Description: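 Multiplexed protein stability (MPS) profiling in S. cerevisiae. Random 12-aa peptides (tFT-X12 library) are fused to the C-terminus of a sfGFP-mCherry tandem fluorescent timer, after mCherry and a GGGS linker. Cells are FACS-sorted into 8 mCherry/sfGFP bins and deep-sequenced. The protein stability index (PSI) is the read-weighted bin average, scaled from 0 (unstable) to 1 (stable). Only peptides with >10 reads are reported; cells were grown at 30 °C in SC-His with glucose.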
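Further: PSI is a weighted mean of sequencing reads over stability bins, variants kept only with over 10 reads, mCherry proximal and sfGFP distal, peptide attached via GGGS linker.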

Sequence | protein stability index
AAALPSNLLSSF | 0.656 ± 0.017
AACSCGCLTGVG | 0.527 ± 0.012
AALVFPSCVVGG | 0.60949 ± 0.00034
AAPAAPATPSPR | 0.716 ± 0.065
AAPDSGTPPLAA | 0.6435 ± 0.0043
AAPPAYGPPPPP | 0.6974 ± 0.0025
AARWHEPLSRER | 0.699 ± 0.029
AAVRGAYPDSEG | 0.64 ± 0.043
AAWPYKYYLAHI | 0.617 ± 0.061
ACGLGGPSDIDN | 0.672 ± 0.013
ACGSRGGQTERP | 0.7143 ± 0.0066
ACPPRPPFRSPS | 0.698 ± 0.026
ADKIPHSDNRSR | 0.697 ± 0.01
ADLTTPHPDPRP | 0.674 ± 0.0096
AEKKEERQRTSN | 0.681 ± 0.032
AEKSYRYIYGKT | 0.669 ± 0.029
AELVVRNGVGGI | 0.831 ± 0.077
AERARRERRGGV | 0.712 ± 0.1
AERKTKASRRKE | 0.654 ± 0.019
AESCRASVVFGV | 0.6849 ± 0.0041
AESLGLNYGSVY | 0.657 ± 0.05
AFCFCIFSSFLV | 0.535 ± 0.021
AFFLHKTFRSSF | 0.732 ± 0.028
AFGSVSLSCLWV | 0.676 ± 0.073
AFPSLRSLPLFS | 0.608 ± 0.024

Sequence | protein stability index
AFPSPPATPSSQ | 0.645 ± 0.079
AFRCGGAPGDFA | 0.654 ± 0.0094
AFRISLSCPISL | 0.619 ± 0.056
AFTPGTTVYVSQ | 0.699 ± 0.037
AFYGDNNTVERM | 0.762 ± 0.053
AGAGLGGVLGWW | 0.671 ± 0.02
AGARPEGPRWGE | 0.703 ± 0.021
AGESPDLSARCG | 0.661 ± 0.11
AGFCRVFSYDFV | 0.708 ± 0.04
AGGAASWPAFFP | 0.793 ± 0.02
AGGGARLGVGRA | 0.637 ± 0.065
AGGGLGAEGCGG | 0.788 ± 0.038
AGGGLGGGGGGP | 0.729 ± 0.031
AGGLCEGGWRGR | 0.6885 ± 0.0035
AGGQRCNWGNTI | 0.6778 ± 0.0053
AGGRGVPSMGNG | 0.644 ± 0.033
AGGVEGRRRVGE | 0.642 ± 0.073
AGHFITRTGGPT | 0.7 ± 0.07
AGHFRVRWGVWS | 0.651 ± 0.056
AGHILSDGTYLP | 0.826 ± 0.13
AGISSLLVQSVP | 0.679 ± 0.049
AGMRRRGGAGGW | 0.684 ± 0.052
AGPAIEGARAPR | 0.7684 ± 0.0022
AGPATSSSPPVS | 0.688 ± 0.032
AGPGGSGGAGEP | 0.68 ± 0.026

Sequence | protein stability index
AGQWGCAGGGEW | 0.703 ± 0.013
AGRRASGRVGSG | 0.728 ± 0.018
AGTIRTTPLTAL | 0.643 ± 0.033
AGVTGGDGYGRW | 0.583 ± 0.064
AGVVRGGRGVGI | 0.728 ± 0.025
AGWCKGMWVSLG | 0.656 ± 0.036
AGWKGGTSRGER | 0.6618 ± 0.0053
AHTPGTHLGRKT | 0.71 ± 0.0082
AICRVGGFGRKD | 0.717 ± 0.01
AIIKADKIRRKK | 0.6751 ± 0.0028
AIKCSDTLLTWV | 0.7194 ± 0.0042
AILSTSHSPWNS | 0.737 ± 0.053
AINAHGISKSYA | 0.688 ± 0.019
AIRIERLGLAIP | 0.682 ± 0.033
AIRLFFRSDARG | 0.618 ± 0.014
AKEIVYAPRNPD | 0.645 ± 0.053
AKKKEIQSTKHK | 0.705 ± 0.0093
AKPPLAPSRNAL | 0.656 ± 0.029
AKSKALGLSPRS | 0.649 ± 0.046
AKTQGLLMVTLQ | 0.712 ± 0.12
ALASPIPCPPPP | 0.715 ± 0.056
ALCEIWQSLLLA | 0.456 ± 0.13
ALFLFGSDRFFV | 0.747 ± 0.026
ALFNEVFRSLLL | 0.712 ± 0.054
ALFPNALYQTLL | 0.723 ± 0.05

Sequence | protein stability index
ALFTFFSARLTR | 0.748 ± 0.044
ALGGPPLSPSPH | 0.7299 ± 0.007
ALHHPPLPHPRS | 0.663 ± 0.084
ALIFPLPASSTF | 0.609 ± 0.038
ALIYMRGLGRFF | 0.555 ± 0.025
ALLPLTHLPLHP | 0.666 ± 0.1
ALLPPPCFFLLP | 0.673 ± 0.0041
ALLPVLPSRPAP | 0.7431 ± 0.0046
ALLRSLSSLPLV | 0.602 ± 0.011
ALLSFVVSSGPA | 0.675 ± 0.026
ALMEFLVFSRCG | 0.642 ± 0.074
ALPETKVSRRQS | 0.677 ± 0.11
ALPIVPDVCFSP | 0.679 ± 0.051
ALPPIARPPPRV | 0.733 ± 0.029
ALPRAPSRPPAR | 0.67 ± 0.042
ALPSALPPLPPP | 0.723 ± 0.055
ALRFLISCRLLD | 0.62622 ± 0.00026
ALRGSYTSFALA | 0.623 ± 0.066
ALSTFTGFLRIP | 0.55 ± 0.01
ALVGMNVQRRRV | 0.705 ± 0.018
ALVRVVRGIGFC | 0.697 ± 0.062
ALWWRVGCGVGL | 0.657 ± 0.042
AMAELVCVSLRC | 0.536 ± 0.016
ANAPPTASFSPP | 0.6745 ± 0.0014
ANEAAYICKGNG | 0.682 ± 0.039

Sequence | protein stability index
APDPARPSTRPL | 0.6892 ± 0.0058
APGACWKERWVR | 0.737 ± 0.037
APGPPLLLPPPL | 0.697 ± 0.1
APGWNNMALDVD | 0.728 ± 0.021
APHYPTGPTVKI | 0.692 ± 0.033
APLLAPPPPSRT | 0.642 ± 0.009
APLPPRSALVGL | 0.6759 ± 0.0011
APPDQPEEGTRA | 0.6332 ± 0.0033
APPEAPQEPLTL | 0.727 ± 0.0092
APPFRLLPLPSP | 0.7573 ± 0.005
APPLSLPPRLFL | 0.69 ± 0.035
APPPAYGPPPPP | 0.692 ± 0.044
APPPPFCHAPTS | 0.6366 ± 0.00082
APPPSLHCLRLP | 0.725 ± 0.071
APPRLSPLPPPP | 0.6848 ± 0.0065
APPRPPPPSPIP | 0.726 ± 0.057
APPRSPLFSSLF | 0.638 ± 0.01
APPTPPHPRPSS | 0.7269 ± 0.0036
APPTTPPPGTHP | 0.696 ± 0.069
APRPAPRPTPLG | 0.706 ± 0.051
APRPPPCPRPGT | 0.7499 ± 0.003
APRPRSPLLPPA | 0.648 ± 0.019
APSPLLPPHSPP | 0.612 ± 0.043
APSVSHAPSRLL | 0.706 ± 0.023
APVHPPPGFLLP | 0.695 ± 0.023

Sequence | protein stability index
APVTFDKSHVST | 0.669 ± 0.031
APYPVSRGLLGF | 0.656 ± 0.057
AQAEGLYRGTAD | 0.657 ± 0.011
AQAPVDPTPVPL | 0.658 ± 0.11
AQCAFIKAGVTW | 0.686 ± 0.051
AQCDAVPFMFCV | 0.663 ± 0.025
AQPFATTGGGLV | 0.69 ± 0.24
AQPRGLLVCPFL | 0.664 ± 0.044
AQRGSTAASAGG | 0.683 ± 0.07
AQTRSVGWEFGY | 0.685 ± 0.0093
ARASPPARRSPT | 0.673 ± 0.058
ARCLTGFYSFTF | 0.794 ± 0.019
AREEGRQNQGMP | 0.665 ± 0.042
ARFGYYLGLGRC | 0.748 ± 0.065
ARGGIGTCSWGG | 0.727 ± 0.0095
ARHPLCLPVLLT | 0.548 ± 0.02
ARIWLGSTSVSR | 0.739 ± 0.14
ARLPLPGSPPFS | 0.719 ± 0.0029
ARLPTYLAAPPP | 0.726 ± 0.089
ARMPQVSEIALC | 0.6612 ± 0.00024
ARQHGLELTNPR | 0.678 ± 0.015
ARRAAPRRPPSD | 0.689 ± 0.047
ARRGAGGGHKGD | 0.673 ± 0.038
ARRPAESHGTTI | 0.716 ± 0.012
ARRSAGGAAVPG | 0.624 ± 0.0098

Sequence | protein stability index
ARSHSPPPPRPP | 0.6723 ± 0.0029
ARSRPSILSGPE | 0.689 ± 0.062
ARVAPPWRSTRA | 0.683 ± 0.049
ASATCQKGSIPR | 0.677 ± 0.036
ASCPLHFTDIRP | 0.679 ± 0.018
ASEGRWVSVMGG | 0.686 ± 0.05
ASFFTARMYIIF | 0.676 ± 0.031
ASFPPPPAAPPP | 0.673 ± 0.093
ASGGLVGAWVCV | 0.675 ± 0.0091
ASGSSVSFQVSF | 0.65 ± 0.069
ASIFPTLKLTYL | 0.713 ± 0.011
ASLHAPPLPPLC | 0.689 ± 0.02
ASLLGSSPPPFI | 0.696 ± 0.072
ASLTNERCGASR | 0.679 ± 0.019
ASLVSPSFLGLV | 0.677 ± 0.084
ASNRVLRILLPR | 0.683 ± 0.05
ASQPNRIPSPPR | 0.71 ± 0.01
ASRFSLPLLSLL | 0.71 ± 0.14
ASRHGALIVLST | 0.6701 ± 0.0053
ASRPPAPVPLPL | 0.686 ± 0.015
ASRRSGSYTGYR | 0.672 ± 0.035
ASSFVGLRWWAG | 0.722 ± 0.012
ASSPAPPSPTPP | 0.7 ± 0.05
ASSPPPRISAWL | 0.7463 ± 0.0032
ASSRPQRKSGKR | 0.77 ± 0.0086

Sequence | protein stability index
ASSRQCSVEART | 0.695 ± 0.0082
ASTFADASSALV | 0.71 ± 0.014
ASTLPTQPWPKG | 0.729 ± 0.11
ASVCASCYTGGF | 0.665 ± 0.03
ATALETWGGAQG | 0.691 ± 0.015
ATGLPSPALLHT | 0.687 ± 0.043
ATLGRCYSSNGL | 0.672 ± 0.031
ATPPPVRPSPIL | 0.677 ± 0.035
ATPTSPSRPFLL | 0.707 ± 0.086
ATTVAIVFCRPA | 0.6165 ± 0.0039
AVAERGRPPLKE | 0.6893 ± 0.0059
AVAHLSCTSRFG | 0.6944 ± 0.0037
AVCCKYFGESLF | 0.864 ± 0.0098
AVCWDVSRCLGL | 0.7 ± 0.019
AVCWWGSVGGVG | 0.6966 ± 0.0069
AVGGWRAAGGGG | 0.7114 ± 0.0042
AVHASTLCSSIG | 0.6659 ± 0.0043
AVLGDGCGVVGA | 0.691 ± 0.072
AVNLWSRFFDLP | 0.686 ± 0.052
AVRGYGCGGGTG | 0.6971 ± 0.0012
AVSHGLFALPFL | 0.703 ± 0.012
